Data on two compounds can be found in article PMC6321344, “Evaluation of [^68Ga]Ga-DOTA-TCTP-1 for the Detection of Metalloproteinase 2/9 Expression in Mouse Atherosclerotic Plaques” (Molecules, 2018).

Positions of bridges follow the written chain, without caps; N, C: chain ends. Residues, ends and D or L forms follow the SMILES beside them. *: point of attachment. X1 = O=C(O)CN1CCN(CC(=O)O)CCN(CC(=O)NCCOCCOCCN*)CCN(CC(=O)O)CC1

As a reminder, the tissue uptake is the share of the injected amount in each gram of the tissue. As a reminder, the IC50 is the concentration at which inhibition is half-maximal.

The nature of series [1]: in vivo. Conditions: both sexes, C57BL/6N, mouse, iv, 18 MBq, total radioactivity, Tracer uptake. The source says:
(§1) Sixteen (eleven males, five females) low-density lipoprotein receptor deficient mice expressing only apolipoprotein B100 (LDLR^-/-ApoB^100/100, Jackson Laboratory, Bar Harbor, ME, USA, strain #003000) were used. Mice were kept on a Western-type diet for 4.4 months starting at the age of 3.5 months. Forty-two percent of their calorific intake consisted of fat and 0.2% cholesterol (TD 88137, Harlan Teklad, Harlan Laboratories, Madison, WI, USA). Nine C57BL/6N mice on a regular chow diet (five males, four females) were used as controls. The mean age and weight of the studied mice at the time of tracer injection were 8.2 ± 0.70 months and 38 ± 8.0 g for the LDLR^-/-ApoB^100/100 mice, and 3.9 ± 0.86 months and 31 ± 5.8 g for the controls. During the studies, mice were housed under standard conditions (light and humidity) with ad libitum access to water and food. The study protocol was approved by the National Animal Experiment Board in Finland and the Regional State Administrative Agency for Southern Finland, and carried out in compliance with the relevant European Union directives. The high-performance liquid chromatography (HPLC) system was a LaChrom instrument (Hitachi; Merck Darmstadt, Germany), including a pump L7100, an ultraviolet (UV) detector L-7400, an interface D-7000 and a computerized data acquisition and processing software. The reversed-phase HPLC column (μBondapak 10 μm C18, 7.8 × 300 mm, pore size 125 Å) was purchased from Waters Corporation, Milford, MA, USA. The online radioisotope detector (Radiomatic 150 TR, Flow Scintillation Analyzer) was from Packard, Meriden, CT, USA. The precursor compound DOTA-TCTP-1 (Figure 1) was obtained as a custom synthesis from Peptide Specialty Laboratories GmbH (Heidelberg, Germany).
(§2) Isoflurane anesthetized mice were intravenously (i.v.) injected with 18 ± 2.7 MBq (in 50–100 µL) of [^68Ga]Ga-DOTA-TCTP-1 via the tail vein. At 60 min after tracer injection, a blood sample was obtained by cardiac puncture and animals were killed by cervical dislocation. Various tissues were excised, weighed, and measured for radioactivity on a gamma counter (Triathler 3”, Hidex, Turku, Finland). Radioactivity values were normalized by the injected radioactivity dose decay with a delta time between injection and measurement, animal weight, and the weight of tissue. Results are expressed as the percentage of injected radioactivity dose per gram of tissue (%ID/g).

Series [2] can be described thus: in vivo. The following applies: LDLR^-/-ApoB^100/100, mouse, iv, 11 MBq, total radioactivity. The method, then:
A subset of mice (three atherosclerotic and three healthy controls) were imaged using a small-animal PET/computed tomography (CT) scanner (Inveon Multimodality; Siemens Medical Solutions, Knoxville, TN, USA). The mice were anesthetized using 1.5% isoflurane, and their temperature was maintained using a heating pad throughout the imaging. Mice were i.v. injected with 11 ± 0.86 MBq (in 50–100 µL) of [^68Ga]Ga-DOTA-TCTP-1 via the tail vein. PET data were acquired in a list-mode for 60 min, starting from the time of injection of [^68Ga]Ga-DOTA-TCTP-1. The images were reconstructed using an ordered-subset expectation maximization 2D algorithm with four iterations into 30 × 3 s, 9 × 10 s, 4 × 30 s, 5 × 60 s, and […] time frames. Immediately after the PET scan, 100 µL of intravascular iodinated contrast agent eXIATM160XL (Binitio Biomedical Inc., Ottawa, ON, Canada) was injected and high-resolution CT was acquired (80 kV, 500 μA). CT images were reconstructed using a Feldkamp-based algorithm, and images were analyzed using Carimas v.2.6 software (Turku PET Centre, Turku, Finland). ROIs were drawn in the aortic arch, blood pool (inside the LV cavity), and several relevant organs, according to the high-resolution CT image. Results are reported as the percentage of injected dose per gram (%ID/g) as a function of the time after injection, i.e., as time-activity curves.

A short description of series [3]: in vivo. More on the design: species or system mouse. Conditions: both sexes, iv, 18 MBq, total radioactivity, Tracer uptake.
Excerpt: as §1, §2

In another series the test system is MMP-2/9. Conditions: quoted with the dose of the commercial inhibitor; ref product number 444251, Merck KGaA; cited from earlier work.

As to `CC(C)C[C@@H]1NC(=O)[C@@H](NC(=O)[C@H](C)NC(=O)CN)CSSC[C@@H](C(=O)NCC(=O)NCCOCCOCCNC(=O)CN2CCN(CC(=O)O)CCN(CC(=O)O)CCN(CC(=O)O)CC2)NC(=O)CNC(=O)[C@H](CCCNC(=N)N)NC(=O)CNC(=O)[C@H](CO)NC(=O)[C@H](CCCNC(=N)N)NC1=O` [[^68Ga]Ga-DOTA-TCTP-1, metal not drawn] (H-GACLRSGRGCG-X1; disulfide 3-10), the tissue uptake at 1 h amounted to 0.52 ± 0.25 %ID/g in “in vivo [1]” (Aorta); 0.69 ± 0.21 %ID/g in “in vivo [1]” (Blood); 0.63 ± 0.5 %ID/g in “in vivo [1]” (Bone); 0.16 ± 0.066 %ID/g in “in vivo [1]” (Heart); 0.43 ± 0.18 %ID/g in “in vivo [1]” (Intestine); 8.9 ± 3.6 %ID/g in the series “in vivo [1]” (Kidneys). In addition, the tissue uptake at 1 h in the series “in vivo [1]” (Liver) stood at 3.2 ± 1.6 %ID/g; in the series “in vivo [1]” (Lungs), 1.3 ± 0.74 %ID/g; in “in vivo [1]” (Lymph node), 0.48 ± 0.19 %ID/g; in “in vivo [1]” (Pancreas), 0.17 ± 0.056 %ID/g; in “in vivo [1]” (Plasma) it was 1.5 ± 1 %ID/g; in “in vivo [1]” (Salivary gland), 0.23 ± 0.07 %ID/g. The tissue uptake at 1 h is 0.17 ± 0.13 %ID/g in the series “in vivo [1]” (Skeletal muscle); 1.7 ± 1.3 %ID/g in “in vivo [1]” (Spleen); 0.23 ± 0.07 %ID/g in “in vivo [1]” (Thymus); 0.17 ± 0.11 %ID/g in the series “in vivo [1]” (WAT (white adipose tissue)); 0.81 ± 0.3 %ID/g in “in vivo [2]” (Radioactivity in myocardium (PET/CT)); 0.77 ± 0.16 %ID/g in “in vivo [2]” (Uptake in atherosclerotic aorta (PET/CT)). Further, the tissue uptake at 1 h in “in vivo [2]” (Uptake in blood pool (PET/CT)) is 1.1 ± 0.64 %ID/g; in “in vivo [2]” (Uptake in liver (PET/CT)), 4.7 ± 3.8 %ID/g; in “in vivo [3]” (LDLR-/-ApoB100/100, mouse, Bone) it was 0.53 ± 0.37 %ID/g; in “in vivo [3]” (LDLR-/-ApoB100/100, mouse, Heart) it was 0.23 ± 0.083 %ID/g; in “in vivo [3]” (LDLR-/-ApoB100/100, mouse, Intestine), 0.59 ± 0.22 %ID/g; in “in vivo [3]” (LDLR-/-ApoB100/100, mouse, Kidneys), 8 ± 2.9 %ID/g. Further, the tissue uptake at 1 h is 1.8 ± 0.48 %ID/g in the series “in vivo [3]” (LDLR-/-ApoB100/100, mouse, Liver); 0.43 ± 0.19 %ID/g in the series “in vivo [3]” (LDLR^-/-ApoB^100/100, mouse, Aorta); 1.3 ± 0.4 %ID/g in “in vivo [3]” (LDLR^-/-ApoB^100/100, mouse, Blood); 2.8 ± 1.6 %ID/g in the series “in vivo [3]” (LDLR^-/-ApoB^100/100, mouse, Lungs); 0.49 ± 0.15 %ID/g in the series “in vivo [3]” (LDLR^-/-ApoB^100/100, mouse, Lymph node); 0.35 ± 0.17 %ID/g in “in vivo [3]” (LDLR^-/-ApoB^100/100, mouse, Pancreas). The tissue uptake at 1 h in “in vivo [3]” (LDLR^-/-ApoB^100/100, mouse, Plasma) worked out at 2.6 ± 1.4 %ID/g; in “in vivo [3]” (LDLR^-/-ApoB^100/100, mouse, Salivary gland) it was 0.38 ± 0.15 %ID/g; in the series “in vivo [3]” (LDLR^-/-ApoB^100/100, mouse, Skeletal muscle), 0.19 ± 0.077 %ID/g; in the series “in vivo [3]” (LDLR^-/-ApoB^100/100, mouse, Spleen) it was 1.9 ± 1.6 %ID/g; in “in vivo [3]” (LDLR^-/-ApoB^100/100, mouse, Thymus), 0.35 ± 0.29 %ID/g; in the series “in vivo [3]” (LDLR^-/-ApoB^100/100, mouse, WAT (white adipose tissue)), 0.17 ± 0.21 %ID/g.

Take “H-Cys^1-Thr-Thr-His-Trp-Gly-Phe-Thr-Leu-Cys^10-OH (cyclic: 1→10) (disulfide) [MMP-2/9 inhibitor]”: in the series with MMP-2/9, the IC50 is 10 µM.
